From patent US20220298218A1 (ANTAG THERAPEUTICS, published 2022)
*1 amine or outer side, *2 acyl side, *3 side chain or, on linkers, in order; H or OH if unused. Where no end group is shown, it is not given here. Side-chain parts run from the residue outwards. The star is where a group is joined. C18 diacid = O=C(O)CCCCCCCCCCCCCCCCC(=O)*; C16 diacid = O=C(O)CCCCCCCCCCCCCCC(=O)*; γGlu = O=C(O)[C@H](CCC(=O)[*:2])N[*:1]; AEEA = NCCOCCOCC(=O)O

T1: human GIP receptor (human, UniProt P48546 22-466)
T1 sequence (looked up): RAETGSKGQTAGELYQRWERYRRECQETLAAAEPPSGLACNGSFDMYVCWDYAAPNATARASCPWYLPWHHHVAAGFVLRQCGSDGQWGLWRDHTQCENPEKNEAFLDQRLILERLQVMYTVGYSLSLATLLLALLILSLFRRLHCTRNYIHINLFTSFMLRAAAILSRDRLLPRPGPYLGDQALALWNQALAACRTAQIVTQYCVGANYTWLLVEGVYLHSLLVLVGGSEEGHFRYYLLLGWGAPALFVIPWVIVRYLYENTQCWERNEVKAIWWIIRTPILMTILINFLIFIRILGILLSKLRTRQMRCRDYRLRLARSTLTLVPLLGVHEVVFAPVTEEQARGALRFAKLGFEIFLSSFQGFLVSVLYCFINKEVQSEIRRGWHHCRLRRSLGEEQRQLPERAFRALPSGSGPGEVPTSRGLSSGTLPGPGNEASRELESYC


Biological target: T1, human GIP receptor
Assay: cell-based or functional assay

Binder	cAMP antagonism [nM]	cAMP antagonism % inhib [%]	cAMP antagonism log [log M]	cAMP agonism Emax
TFISDYKIAMDKIHQQDFVNWLLAQKGKKNDWKHN (HELM PEPTIDE1{T.F.I.S.D.Y.K.I.A.M.D.K.I.H.Q.Q.D.F.V.N.W.L.L.A.Q.K.G.K.K.N.D.W.K.H.N}|PEPTIDE2{[O=C(O)CCCCCCCCCCCCCCC(=O)[*:2]].[gGlu]}$PEPTIDE1,PEPTIDE2,7:R3-2:R2$$$V2.0; N-terminus assumed; SMILES CC[C@H](C)[C@H](NC(=O)[C@H](CCCCNC(=O)CC[C@H](NC(=O)CCCCCCCCCCCCCCC(=O)O)C(=O)O)NC(=O)[C@H](Cc1ccc(O)cc1)NC(=O)[C@H](CC(=O)O)NC(=O)[C@H](CO)NC(=O)[C@@H](NC(=O)[C@H](Cc1ccccc1)NC(=O)[C@@H](N)[C@@H](C)O)[C@@H](C)CC)C(=O)N[C@@H](C)C(=O)N[C@@H](CCSC)C(=O)N[C@@H](CC(=O)O)C(=O)N[C@@H](CCCCN)C(=O)N[C@H](C(=O)N[C@@H](Cc1c[nH]cn1)C(=O)N[C@@H](CCC(N)=O)C(=O)N[C@@H](CCC(N)=O)C(=O)N[C@@H](CC(=O)O)C(=O)N[C@@H](Cc1ccccc1)C(=O)N[C@H](C(=O)N[C@@H](CC(N)=O)C(=O)N[C@@H](Cc1c[nH]c2ccccc12)C(=O)N[C@@H](CC(C)C)C(=O)N[C@@H](CC(C)C)C(=O)N[C@@H](C)C(=O)N[C@@H](CCC(N)=O)C(=O)N[C@@H](CCCCN)C(=O)NCC(=O)N[C@@H](CCCCN)C(=O)N[C@@H](CCCCN)C(=O)N[C@@H](CC(N)=O)C(=O)N[C@@H](CC(=O)O)C(=O)N[C@@H](Cc1c[nH]c2ccccc12)C(=O)N[C@@H](CCCCN)C(=O)N[C@@H](Cc1c[nH]cn1)C(=O)N[C@@H](CC(N)=O)C(=O)O)C(C)C)[C@@H](C)CC) [AT367]	6	100	-8.3	–
TFISDYKIAMDKIHQQDFVNWLLAQKGKKNDWKHNITQ (HELM PEPTIDE1{T.F.I.S.D.Y.K.I.A.M.D.K.I.H.Q.Q.D.F.V.N.W.L.L.A.Q.K.G.K.K.N.D.W.K.H.N.I.T.Q}|PEPTIDE2{[O=C(O)CCCCCCCCCCCCCCC(=O)[*:2]].[gGlu]}$PEPTIDE1,PEPTIDE2,7:R3-2:R2$$$V2.0; N-terminus assumed; SMILES CC[C@H](C)[C@H](NC(=O)[C@H](CCCCNC(=O)CC[C@H](NC(=O)CCCCCCCCCCCCCCC(=O)O)C(=O)O)NC(=O)[C@H](Cc1ccc(O)cc1)NC(=O)[C@H](CC(=O)O)NC(=O)[C@H](CO)NC(=O)[C@@H](NC(=O)[C@H](Cc1ccccc1)NC(=O)[C@@H](N)[C@@H](C)O)[C@@H](C)CC)C(=O)N[C@@H](C)C(=O)N[C@@H](CCSC)C(=O)N[C@@H](CC(=O)O)C(=O)N[C@@H](CCCCN)C(=O)N[C@H](C(=O)N[C@@H](Cc1c[nH]cn1)C(=O)N[C@@H](CCC(N)=O)C(=O)N[C@@H](CCC(N)=O)C(=O)N[C@@H](CC(=O)O)C(=O)N[C@@H](Cc1ccccc1)C(=O)N[C@H](C(=O)N[C@@H](CC(N)=O)C(=O)N[C@@H](Cc1c[nH]c2ccccc12)C(=O)N[C@@H](CC(C)C)C(=O)N[C@@H](CC(C)C)C(=O)N[C@@H](C)C(=O)N[C@@H](CCC(N)=O)C(=O)N[C@@H](CCCCN)C(=O)NCC(=O)N[C@@H](CCCCN)C(=O)N[C@@H](CCCCN)C(=O)N[C@@H](CC(N)=O)C(=O)N[C@@H](CC(=O)O)C(=O)N[C@@H](Cc1c[nH]c2ccccc12)C(=O)N[C@@H](CCCCN)C(=O)N[C@@H](Cc1c[nH]cn1)C(=O)N[C@@H](CC(N)=O)C(=O)N[C@H](C(=O)N[C@H](C(=O)N[C@@H](CCC(N)=O)C(=O)O)[C@@H](C)O)[C@@H](C)CC)C(C)C)[C@@H](C)CC) [AT368]	9	100	-8.1	–
EGTFISDYSIAMDKIK([AEEA-AEEA-AEEA-γGlu-C18 diacid])QQDFVNWLLAQKGKKNDW-OH (N-terminus assumed; SMILES CC[C@H](C)[C@H](NC(=O)[C@H](CO)NC(=O)[C@H](Cc1ccc(O)cc1)NC(=O)[C@H](CC(=O)O)NC(=O)[C@H](CO)NC(=O)[C@@H](NC(=O)[C@H](Cc1ccccc1)NC(=O)[C@@H](NC(=O)CNC(=O)[C@@H](N)CCC(=O)O)[C@@H](C)O)[C@@H](C)CC)C(=O)N[C@@H](C)C(=O)N[C@@H](CCSC)C(=O)N[C@@H](CC(=O)O)C(=O)N[C@@H](CCCCN)C(=O)N[C@H](C(=O)N[C@@H](CCCCNC(=O)COCCOCCNC(=O)COCCOCCNC(=O)COCCOCCNC(=O)CC[C@H](NC(=O)CCCCCCCCCCCCCCCCC(=O)O)C(=O)O)C(=O)N[C@@H](CCC(N)=O)C(=O)N[C@@H](CCC(N)=O)C(=O)N[C@@H](CC(=O)O)C(=O)N[C@@H](Cc1ccccc1)C(=O)N[C@H](C(=O)N[C@@H](CC(N)=O)C(=O)N[C@@H](Cc1c[nH]c2ccccc12)C(=O)N[C@@H](CC(C)C)C(=O)N[C@@H](CC(C)C)C(=O)N[C@@H](C)C(=O)N[C@@H](CCC(N)=O)C(=O)N[C@@H](CCCCN)C(=O)NCC(=O)N[C@@H](CCCCN)C(=O)N[C@@H](CCCCN)C(=O)N[C@@H](CC(N)=O)C(=O)N[C@@H](CC(=O)O)C(=O)N[C@@H](Cc1c[nH]c2ccccc12)C(=O)O)C(C)C)[C@@H](C)CC) [AT418]	68	95	-7.2	7.8
SGTFISDYSIAMDKIK([AEEA-AEEA-AEEA-γGlu-C16 diacid])QQDFVNWLLAQKGKKNDW-OH (N-terminus assumed; SMILES CC[C@H](C)[C@H](NC(=O)[C@H](CO)NC(=O)[C@H](Cc1ccc(O)cc1)NC(=O)[C@H](CC(=O)O)NC(=O)[C@H](CO)NC(=O)[C@@H](NC(=O)[C@H](Cc1ccccc1)NC(=O)[C@@H](NC(=O)CNC(=O)[C@@H](N)CO)[C@@H](C)O)[C@@H](C)CC)C(=O)N[C@@H](C)C(=O)N[C@@H](CCSC)C(=O)N[C@@H](CC(=O)O)C(=O)N[C@@H](CCCCN)C(=O)N[C@H](C(=O)N[C@@H](CCCCNC(=O)COCCOCCNC(=O)COCCOCCNC(=O)COCCOCCNC(=O)CC[C@H](NC(=O)CCCCCCCCCCCCCCC(=O)O)C(=O)O)C(=O)N[C@@H](CCC(N)=O)C(=O)N[C@@H](CCC(N)=O)C(=O)N[C@@H](CC(=O)O)C(=O)N[C@@H](Cc1ccccc1)C(=O)N[C@H](C(=O)N[C@@H](CC(N)=O)C(=O)N[C@@H](Cc1c[nH]c2ccccc12)C(=O)N[C@@H](CC(C)C)C(=O)N[C@@H](CC(C)C)C(=O)N[C@@H](C)C(=O)N[C@@H](CCC(N)=O)C(=O)N[C@@H](CCCCN)C(=O)NCC(=O)N[C@@H](CCCCN)C(=O)N[C@@H](CCCCN)C(=O)N[C@@H](CC(N)=O)C(=O)N[C@@H](CC(=O)O)C(=O)N[C@@H](Cc1c[nH]c2ccccc12)C(=O)O)C(C)C)[C@@H](C)CC) [AT420]	237	100	-6.6	–
SGTFISDYSIAMDKIK([AEEA-AEEA-γGlu-C16 diacid])QQDFVNWLLAQKGKKNDW-OH (N-terminus assumed; SMILES CC[C@H](C)[C@H](NC(=O)[C@H](CO)NC(=O)[C@H](Cc1ccc(O)cc1)NC(=O)[C@H](CC(=O)O)NC(=O)[C@H](CO)NC(=O)[C@@H](NC(=O)[C@H](Cc1ccccc1)NC(=O)[C@@H](NC(=O)CNC(=O)[C@@H](N)CO)[C@@H](C)O)[C@@H](C)CC)C(=O)N[C@@H](C)C(=O)N[C@@H](CCSC)C(=O)N[C@@H](CC(=O)O)C(=O)N[C@@H](CCCCN)C(=O)N[C@H](C(=O)N[C@@H](CCCCNC(=O)COCCOCCNC(=O)COCCOCCNC(=O)CC[C@H](NC(=O)CCCCCCCCCCCCCCC(=O)O)C(=O)O)C(=O)N[C@@H](CCC(N)=O)C(=O)N[C@@H](CCC(N)=O)C(=O)N[C@@H](CC(=O)O)C(=O)N[C@@H](Cc1ccccc1)C(=O)N[C@H](C(=O)N[C@@H](CC(N)=O)C(=O)N[C@@H](Cc1c[nH]c2ccccc12)C(=O)N[C@@H](CC(C)C)C(=O)N[C@@H](CC(C)C)C(=O)N[C@@H](C)C(=O)N[C@@H](CCC(N)=O)C(=O)N[C@@H](CCCCN)C(=O)NCC(=O)N[C@@H](CCCCN)C(=O)N[C@@H](CCCCN)C(=O)N[C@@H](CC(N)=O)C(=O)N[C@@H](CC(=O)O)C(=O)N[C@@H](Cc1c[nH]c2ccccc12)C(=O)O)C(C)C)[C@@H](C)CC) [AT419]	215	78	-6.7	4.9
